From paper PMC6521718 (Molecular cell, 2018) come the findings set out here.

Like-named read-outs stand apart in the source and are kept apart here.

Series [1] addresses T1, Csy complex (type I-F, wild type);Cas1-2/3 complex (Pseudomonas aeruginosa PA14;Pseudomonas …, UniProt Q02ML9;Q02MM0;Q02MM1;Q02MM2;Q02ML7;Q02ML8 1-434;1-327;1-342;1-187;1-324;1-1076, |). The series is described as follows: EMSA. (A gel shift assay detects complexes by their altered migration in electrophoresis.)
In the next series the target is T2, Csy complex Cas8f N250A (Pseudomonas aeruginosa PA14, UniProt Q02ML9;Q02MM0;Q02MM1;Q02MM2 1-434;1-327;1-342;1-187, N250A).
T2 sequence 1: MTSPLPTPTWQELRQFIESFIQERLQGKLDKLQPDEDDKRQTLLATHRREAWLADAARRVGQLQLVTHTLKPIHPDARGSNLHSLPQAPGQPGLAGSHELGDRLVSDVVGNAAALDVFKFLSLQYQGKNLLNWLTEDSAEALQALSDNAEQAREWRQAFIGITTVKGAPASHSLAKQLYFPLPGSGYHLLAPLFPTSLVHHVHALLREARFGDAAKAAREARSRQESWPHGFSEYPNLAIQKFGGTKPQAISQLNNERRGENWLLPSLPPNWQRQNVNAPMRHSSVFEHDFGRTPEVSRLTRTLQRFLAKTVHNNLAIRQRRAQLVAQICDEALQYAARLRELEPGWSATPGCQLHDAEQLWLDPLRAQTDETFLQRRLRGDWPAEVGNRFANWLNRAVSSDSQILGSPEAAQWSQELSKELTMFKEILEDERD
T2 sequence 2: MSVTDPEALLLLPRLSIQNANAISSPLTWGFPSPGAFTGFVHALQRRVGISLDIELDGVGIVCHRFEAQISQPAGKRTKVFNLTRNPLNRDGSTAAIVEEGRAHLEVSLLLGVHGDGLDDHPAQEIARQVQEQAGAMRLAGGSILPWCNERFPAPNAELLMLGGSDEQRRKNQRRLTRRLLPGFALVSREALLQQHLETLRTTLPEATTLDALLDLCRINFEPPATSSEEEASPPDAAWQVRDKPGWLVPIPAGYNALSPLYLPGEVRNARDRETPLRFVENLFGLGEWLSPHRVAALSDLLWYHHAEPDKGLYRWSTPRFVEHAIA
T2 sequence 3: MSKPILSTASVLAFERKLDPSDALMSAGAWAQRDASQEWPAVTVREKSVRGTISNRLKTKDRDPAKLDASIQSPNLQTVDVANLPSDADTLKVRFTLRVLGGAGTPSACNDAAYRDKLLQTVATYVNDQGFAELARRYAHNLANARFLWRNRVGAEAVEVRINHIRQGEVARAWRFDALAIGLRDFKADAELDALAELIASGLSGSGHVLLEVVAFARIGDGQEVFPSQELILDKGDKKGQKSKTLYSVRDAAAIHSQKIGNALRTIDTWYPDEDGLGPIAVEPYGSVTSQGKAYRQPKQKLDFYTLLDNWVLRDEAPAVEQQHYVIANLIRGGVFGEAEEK
T2 sequence 4: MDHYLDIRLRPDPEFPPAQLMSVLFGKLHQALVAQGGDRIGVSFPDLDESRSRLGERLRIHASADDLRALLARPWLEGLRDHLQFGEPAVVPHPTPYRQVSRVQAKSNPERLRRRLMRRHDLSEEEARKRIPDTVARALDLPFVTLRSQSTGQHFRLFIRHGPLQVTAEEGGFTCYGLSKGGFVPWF
The experiment in a line: EMSA.

The target of series [2] is T3, Csy complex (type I-F, wild type) (Pseudomonas aeruginosa PA14, UniProt Q02ML9;Q02MM0;Q02MM1;Q02MM2 1-434;1-327;1-342;1-187).
T3 sequence 1: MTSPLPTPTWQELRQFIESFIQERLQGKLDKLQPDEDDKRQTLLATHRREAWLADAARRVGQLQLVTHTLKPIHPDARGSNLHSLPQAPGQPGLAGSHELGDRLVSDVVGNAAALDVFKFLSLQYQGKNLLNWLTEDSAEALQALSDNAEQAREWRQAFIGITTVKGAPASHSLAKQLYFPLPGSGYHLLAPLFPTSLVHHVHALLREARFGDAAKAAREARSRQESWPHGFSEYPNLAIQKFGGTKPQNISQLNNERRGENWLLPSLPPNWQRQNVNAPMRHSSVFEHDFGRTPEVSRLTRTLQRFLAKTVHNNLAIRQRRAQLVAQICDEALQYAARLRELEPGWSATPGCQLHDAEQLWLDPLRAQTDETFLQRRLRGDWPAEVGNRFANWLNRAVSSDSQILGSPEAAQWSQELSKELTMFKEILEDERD
T3 sequence 2: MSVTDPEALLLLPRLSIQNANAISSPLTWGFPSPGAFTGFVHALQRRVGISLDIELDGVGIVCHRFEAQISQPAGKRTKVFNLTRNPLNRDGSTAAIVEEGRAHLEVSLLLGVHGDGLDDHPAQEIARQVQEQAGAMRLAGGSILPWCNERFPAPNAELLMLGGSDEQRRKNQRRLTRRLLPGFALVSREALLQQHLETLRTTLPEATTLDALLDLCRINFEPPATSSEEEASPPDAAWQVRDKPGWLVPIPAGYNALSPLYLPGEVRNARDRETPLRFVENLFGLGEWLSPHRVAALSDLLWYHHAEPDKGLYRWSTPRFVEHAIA
T3 sequence 3: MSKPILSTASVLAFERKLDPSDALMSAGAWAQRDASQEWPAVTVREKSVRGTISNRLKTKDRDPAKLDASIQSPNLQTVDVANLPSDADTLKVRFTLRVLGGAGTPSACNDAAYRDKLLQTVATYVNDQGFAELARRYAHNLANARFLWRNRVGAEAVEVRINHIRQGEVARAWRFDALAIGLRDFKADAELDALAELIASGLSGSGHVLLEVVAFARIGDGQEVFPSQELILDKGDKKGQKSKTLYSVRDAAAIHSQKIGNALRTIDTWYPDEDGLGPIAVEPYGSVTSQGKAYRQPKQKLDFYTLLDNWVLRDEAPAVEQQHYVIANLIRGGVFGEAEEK
T3 sequence 4: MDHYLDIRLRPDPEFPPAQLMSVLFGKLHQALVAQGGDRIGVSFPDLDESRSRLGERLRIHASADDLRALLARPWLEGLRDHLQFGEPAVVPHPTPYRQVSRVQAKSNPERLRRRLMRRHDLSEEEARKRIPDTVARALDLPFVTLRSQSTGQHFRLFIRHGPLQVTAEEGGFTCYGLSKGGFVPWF
The series is described as follows: cryo-EM.

In series [3] the target is T4, Csy complex Cas8f RBC mutant (Pseudomonas aeruginosa PA14, UniProt Q02ML9;Q02MM0;Q02MM1;Q02MM2 1-434;1-327;1-342;1-187, R282E;H283D;R299E;R302E).
T4 sequence 1: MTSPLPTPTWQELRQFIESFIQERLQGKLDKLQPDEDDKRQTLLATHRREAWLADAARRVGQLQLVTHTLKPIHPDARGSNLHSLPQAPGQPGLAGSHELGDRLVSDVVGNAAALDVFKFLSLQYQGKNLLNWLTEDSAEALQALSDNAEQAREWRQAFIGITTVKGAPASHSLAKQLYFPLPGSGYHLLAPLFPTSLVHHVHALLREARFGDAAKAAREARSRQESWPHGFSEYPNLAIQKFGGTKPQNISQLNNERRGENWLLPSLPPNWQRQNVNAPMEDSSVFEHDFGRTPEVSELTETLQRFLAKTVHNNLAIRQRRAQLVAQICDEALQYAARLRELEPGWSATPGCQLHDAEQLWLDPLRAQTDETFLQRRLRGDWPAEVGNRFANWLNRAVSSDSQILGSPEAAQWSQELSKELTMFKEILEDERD
T4 sequence 2: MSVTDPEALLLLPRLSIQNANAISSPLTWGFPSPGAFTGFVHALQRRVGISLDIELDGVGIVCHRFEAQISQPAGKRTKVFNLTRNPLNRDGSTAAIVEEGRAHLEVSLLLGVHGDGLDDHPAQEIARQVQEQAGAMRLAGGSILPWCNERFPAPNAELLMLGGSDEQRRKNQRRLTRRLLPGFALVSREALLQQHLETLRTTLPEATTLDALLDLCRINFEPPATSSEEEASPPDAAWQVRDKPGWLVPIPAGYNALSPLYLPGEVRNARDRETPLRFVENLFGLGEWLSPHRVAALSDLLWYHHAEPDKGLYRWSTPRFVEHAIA
T4 sequence 3: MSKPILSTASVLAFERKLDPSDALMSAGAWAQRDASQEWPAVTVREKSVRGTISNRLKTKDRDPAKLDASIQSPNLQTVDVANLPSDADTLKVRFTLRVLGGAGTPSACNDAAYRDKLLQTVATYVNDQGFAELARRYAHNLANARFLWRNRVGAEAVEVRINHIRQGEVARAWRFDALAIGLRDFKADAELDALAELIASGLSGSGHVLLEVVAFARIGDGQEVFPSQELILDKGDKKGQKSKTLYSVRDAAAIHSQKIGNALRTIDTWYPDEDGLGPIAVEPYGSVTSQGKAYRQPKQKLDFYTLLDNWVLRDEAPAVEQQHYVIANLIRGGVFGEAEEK
T4 sequence 4: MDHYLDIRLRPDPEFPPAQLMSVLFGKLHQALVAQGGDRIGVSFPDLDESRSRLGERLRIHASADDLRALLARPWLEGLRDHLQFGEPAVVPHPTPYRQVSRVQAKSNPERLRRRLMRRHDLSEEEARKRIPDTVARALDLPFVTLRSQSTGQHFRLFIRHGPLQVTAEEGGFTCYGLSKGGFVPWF
The experiment in a line: EMSA.

Series [4] deals with T3, Csy complex (type I-F, wild type). The series is described as follows: EMSA.
Series [5] addresses T1, Csy complex (type I-F, wild …). The experiment in a line: EMSA. The source holds these as a separate data set.
The series “cryo-EM structure” concerns the molecule itself. The series is described as follows: cryo-EM structure.

T1 sequence (Q02ML7 whole entry, chain 5 of 2): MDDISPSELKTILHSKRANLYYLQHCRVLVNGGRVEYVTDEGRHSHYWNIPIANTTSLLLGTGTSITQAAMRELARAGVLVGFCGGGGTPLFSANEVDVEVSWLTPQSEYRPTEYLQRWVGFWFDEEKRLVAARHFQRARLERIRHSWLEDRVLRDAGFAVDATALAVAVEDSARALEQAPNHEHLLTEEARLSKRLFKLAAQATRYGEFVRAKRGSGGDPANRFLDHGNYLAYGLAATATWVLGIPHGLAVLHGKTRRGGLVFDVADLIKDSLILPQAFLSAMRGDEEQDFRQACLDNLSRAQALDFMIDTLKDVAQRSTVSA
T1 sequence (Q02ML8 whole entry, chain 6 of 2): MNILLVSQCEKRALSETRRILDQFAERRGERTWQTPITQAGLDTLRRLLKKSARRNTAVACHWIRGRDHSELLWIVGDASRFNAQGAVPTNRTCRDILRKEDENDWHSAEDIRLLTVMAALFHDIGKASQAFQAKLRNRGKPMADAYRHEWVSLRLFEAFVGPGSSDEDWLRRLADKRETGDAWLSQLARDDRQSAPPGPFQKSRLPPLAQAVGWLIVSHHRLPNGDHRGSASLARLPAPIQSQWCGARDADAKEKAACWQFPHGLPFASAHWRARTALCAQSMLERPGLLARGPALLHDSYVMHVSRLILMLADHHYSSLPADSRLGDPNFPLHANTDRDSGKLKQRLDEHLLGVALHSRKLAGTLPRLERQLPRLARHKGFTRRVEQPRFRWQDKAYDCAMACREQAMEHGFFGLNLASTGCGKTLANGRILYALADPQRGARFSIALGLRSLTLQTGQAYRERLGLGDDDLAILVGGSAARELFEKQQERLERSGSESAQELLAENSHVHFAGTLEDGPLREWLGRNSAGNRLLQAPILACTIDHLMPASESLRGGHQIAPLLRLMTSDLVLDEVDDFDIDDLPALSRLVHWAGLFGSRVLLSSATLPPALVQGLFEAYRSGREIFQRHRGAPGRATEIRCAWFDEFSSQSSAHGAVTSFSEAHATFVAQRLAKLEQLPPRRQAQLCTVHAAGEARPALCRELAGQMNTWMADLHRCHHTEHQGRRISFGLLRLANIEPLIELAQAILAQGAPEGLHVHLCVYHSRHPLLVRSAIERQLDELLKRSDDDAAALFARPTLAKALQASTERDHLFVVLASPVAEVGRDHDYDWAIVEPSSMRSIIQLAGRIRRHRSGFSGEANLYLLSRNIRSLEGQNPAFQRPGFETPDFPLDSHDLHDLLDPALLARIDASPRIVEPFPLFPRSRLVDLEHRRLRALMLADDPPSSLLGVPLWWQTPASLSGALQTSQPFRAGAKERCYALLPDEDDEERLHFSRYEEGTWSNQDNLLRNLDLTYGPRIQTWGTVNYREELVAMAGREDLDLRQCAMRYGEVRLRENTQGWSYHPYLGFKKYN

B1: 80-bp dsDNA target, GG PAM (dsDNA)
DNA 1: GCTGTACGTCACTATCGAAGCAATACAGGTAGACGCGGACATCAAGCCCGCCGTGAAGGTGCAGCTTCTCTACAGAGTGC
DNA 2: GCACTCTGTAGAGAAGCTGCACCTTCACGGCGGGCTTGATGTCCGCGTCTACCTGTATTGCTTCGATAGTGACGTACAGC
On to B1, for which the binding result in series [1] and in series [2] was “binds” in each case. Besides, the binding signal in the series with Csy complex Cas8f N250A was > 1000 fold decrease in affinity vs WT.

B2: 80-bp target, GG PAM, bubble +1 to +10 (dsDNA)
DNA 1: GCTGTACGTCACTATCGAAGCAATACAGGTAGACGCGGACATCAAGCCCGCCGTGAAGGTGCAGCTTCTCTACAGAGTGC
DNA 2: GCACTCTGTAGAGAAGCTGCACCAAGTGCCGCCGCTTGATGTCCGCGTCTACCTGTATTGCTTCGATAGTGACGTACAGC
Consider B2, for which, in series [3], the binding result was “binds”.

B3: 80-bp target, TT PAM, bubble +1 to +10 (dsDNA)
DNA 1: GCTGTACGTCACTATCGAAGCAATACAGGTAGACGCGGACATCAAGCCCGCCGTGAATTTGCAGCTTCTCTACAGAGTGC
DNA 2: GCACTCTGTAGAGAAGCTGCAAAAAGTGCCGCCGCTTGATGTCCGCGTCTACCTGTATTGCTTCGATAGTGACGTACAGC
For the molecule B3, the binding result in series [4] and in series [5] was “binds” each time.

B4: 80-bp target, CC PAM, bubble +1 to +10 (dsDNA)
DNA 1: GCTGTACGTCACTATCGAAGCAATACAGGTAGACGCGGACATCAAGCCCGCCGTGAACCTGCAGCTTCTCTACAGAGTGC
DNA 2: GCACTCTGTAGAGAAGCTGCAGGAAGTGCCGCCGCTTGATGTCCGCGTCTACCTGTATTGCTTCGATAGTGACGTACAGC
For the molecule B4, the binding result in series [4] and in series [5] was “binds” in each case.

B5: 80-bp target, AA PAM, bubble +1 to +10 (dsDNA)
DNA 1: GCTGTACGTCACTATCGAAGCAATACAGGTAGACGCGGACATCAAGCCCGCCGTGAAAATGCAGCTTCTCTACAGAGTGC
DNA 2: GCACTCTGTAGAGAAGCTGCATTAAGTGCCGCCGCTTGATGTCCGCGTCTACCTGTATTGCTTCGATAGTGACGTACAGC
Turning to B5, the binding result in series [4] and in series [5] was “binds” throughout.

B6: Cas7f, backbone subunit of the Csy complex (natural protein, Pseudomonas aeruginosa (strain PA14))
chain: MSKPILSTASVLAFERKLDPSDALMSAGAWAQRDASQEWPAVTVREKSVRGTISNRLKTKDRDPAKLDASIQSPNLQTVDVANLPSDADTLKVRFTLRVLGGAGTPSACNDAAYRDKLLQTVATYVNDQGFAELARRYAHNLANARFLWRNRVGAEAVEVRINHIRQGEVARAWRFDALAIGLRDFKADAELDALAELIASGLSGSGHVLLEVVAFARIGDGQEVFPSQELILDKGDKKGQKSKTLYSVRDAAAIHSQKIGNALRTIDTWYPDEDGLGPIAVEPYGSVTSQGKAYRQPKQKLDFYTLLDNWVLRDEAPAVEQQHYVIANLIRGGVFGEAEEK
As to B6, the binding result in the series “cryo-EM structure” is “binds”.
